Measurements reported in patent US7202329.

Molecular target: yeast two-hybrid activation domain-Tsg101 construct (full-length Tsg101) (human) (UniProt Q99816)
Assay: cell-based or functional assay

yeast two-hybrid activation domain-Tsg101 construct (full-length Tsg101) (human), sequence (Q99816 whole entry, the tested form may be a part): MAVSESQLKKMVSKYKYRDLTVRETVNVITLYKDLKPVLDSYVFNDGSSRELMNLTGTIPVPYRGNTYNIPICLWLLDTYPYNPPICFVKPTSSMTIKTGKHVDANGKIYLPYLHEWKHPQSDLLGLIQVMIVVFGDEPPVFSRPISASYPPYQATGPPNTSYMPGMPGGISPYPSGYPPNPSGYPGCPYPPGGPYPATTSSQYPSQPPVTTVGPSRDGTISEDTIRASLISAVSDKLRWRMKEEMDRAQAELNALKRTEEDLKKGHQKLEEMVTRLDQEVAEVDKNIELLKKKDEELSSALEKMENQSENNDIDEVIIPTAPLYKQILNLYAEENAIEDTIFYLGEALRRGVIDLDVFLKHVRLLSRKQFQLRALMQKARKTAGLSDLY

yeast two-hybrid DNA binding domain-HIV1 GAGp6 construct, wild type (from UniProt P04386 1-147; P12493 449-500)
β-galactosidase activity, two-hybrid liquid culture assay (fold over background): > 300
